Results as given in article PMC10440475 (Heliyon, 2023).
Values joined by “and” are separate entries in the source; they are usually repeats but may differ in a detail not shown here. Identical values can stand only once.

Target: the molecule itself
Assay: PFO-PAGE

B1: ORF3aΔN-eGFP (N-terminus truncated SARS-CoV-2 ORF3a with C-terminal eGFP) (domain or fragment)
chain: PFGWLIVGVALLAVFQSASKIITLKKRWQLALSKGVHFVCNLLLLFVTVYSHLLLVAAGLEAPFLYLYALVYFLQSINFVRIIMRLWLCWKCRSKNPLLYDANYFLCWHTNCYDYCIPYNSVTSSIVITSGDGTTSPISEHDYQIGGYTEKWESGVKDCVVLHSYFTSDYYQLYSTQLSTDTGVEHVTFFIYNKIVDEPEEHVQIHTIDGSSGVVNPVMEPIYDEPTTTTSVPL
  stoichiometry N: 5 and 2 and 3 and 4
